Test results reported in the supplement of paper PMC9170038.

Test system: MS2 coat protein
Assay: apparent KD of MS2 coat protein; designed switch direction (-1 OFF switch, 1 ON switch): -1; higher = weaker reporter binding
Outline: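 The apparent KD reported per design is the median over clusters of curve fits to normalised cluster fluorescence. The RNA switches were transcribed on Illumina chips by stalled E. coli RNA polymerase. SNAP-549-labelled MS2 coat protein was titrated from 0.7 or 1.5 nM, doubling up to 3 µM, in Tris-HCl pH 7.5 buffer containing KCl, MgCl2, BSA, DTT, tRNA and Tween-20, with no input, 200 uM small-molecule ligand, or an oligonucleotide input.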

[1] = Eterna round: R95, input ligand: microRNA oligo, concentration not stated
[2] = input ligand: microRNA oligo, concentration not stated
[3] = Eterna round: R95, input ligand: FMN 200 uM
[4] = Eterna round: R95, input ligand: none

Sequence	apparent KD of MS2 coat protein [1] [nM]	apparent KD of MS2 coat protein (input ligand: FMN 200 uM) [nM]	apparent KD of MS2 coat protein (input ligand: none) [nM]	apparent KD of MS2 coat protein [2] [nM]	apparent KD of MS2 coat protein [3] [nM]	apparent KD of MS2 coat protein [4] [nM]
CAGUACUGAGGAUAUACAUGAGGAUCACCCAUGUGUCCCGGCUAGGAAACUAGCAAAAGUAGAAGGCAGUACUG [Fiskers Ex 3 828 mod 2] (puzzle: Exclusion 3)	25.1					
CAGUACUGAGGAUAUACAUGAGGAUCACCCAUGUGUGUGAAUUUUAUGUGGUCGUAAUGUAGAAGGCAGUACUG [JR_Ex3_Sub027] (Eterna round: R97, puzzle: Exclusion 3)		407	86.3			
CAGUACUGAGGAUAUACAUGAGGAUCACCCAUGUGUGUGAGAAUUGUAUGAAUGUUAUGUAGAAGGCGGUGCUG [JR_Ex3_Sub033] (Eterna round: R97, puzzle: Exclusion 3)		143	765			
CAGUACUGAGGAUAUACAUGAGGAUCACCCAUGUGUUCCAGCUAGGAAACUAGCGAAAGUAGAAGGCAGUACUG [salish99_ex3_r3_068] (Eterna round: R96, puzzle: Exclusion 3)		562	24.6	19.9		
CAGUACUGAGGAUAUACAUGAGGAUCACCCAUGUGUUCCAGCUAGGAAACUAGCGAAAGUAGAAGGCAGUACUG [salish99_ex3_r3_068] (puzzle: Exclusion 3)	22.9					
CAGUACUGAGGAUAUACAUGAGGAUCACCCAUGUGUUCCAGCUAGGAAACUUGCAAAAGUAGAAGGCAGUACUG [salish99_ex3_r3_093x] (puzzle: Exclusion 3)	11.9					
CAUACACAUGAGGAUCACCCAUGUGAGGAUAUGCGUACGUUGUCCGUAGGCGACGUGCGCAGAAGGCGCGUGAG [JL-ex1-3.14 Eli mod] (puzzle: Exclusion 1)	45.3					
CAUAGUCUAGGAUAUUCACCUCUAUACAUGAGGAUCACCCAUGUCAAUGGCAGAUGACCAGAAGAAGGAGAAGUGG [Eternabot (L1) Solution 16] (Eterna round: R97, puzzle: Exclusion 5)		90.2	84.8			
CAUAGUUACUCAGGAUAUACUACAUGAGGAUCACCCAUGUAAUAAAUGAGAAUUUCGAAUGUAUAGUAGAAGGGAGAAAUCUAC [Ostracism 56 - Jieux - Exclusion NG 2] (Eterna round: R96, puzzle: Exclusion NG 2)		18.3	23.8	14.7		
CAUAGUUACUCAGGAUAUCAUACAUGAGGAUCACCCAUGUAAUAAAUGAGAAUUUCGAAUGUAUAUGAGAAGGGAGAAAUCUAC [Ostracism 59 - Jieux - Exclusion NG 2] (Eterna round: R96, puzzle: Exclusion NG 2)		69.2	22.6	13.4		
CAUAUAGUAGUCAGGAUAUGCGAAGAGAGAAGGAAGUAGAAGGGACAUGAGGAUCACCCAUGUAUAUUGUAAAG [EX-4 Malc #3] (puzzle: Brourd's mod of Exclusion 4)	28.9				29.6	28.4
CAUCACUGCUAGGAUAUCGAGUCGGAGAAUACUUGAGAAGGAGCUACAUGAGGAUCACCCAUGUCCUCCGCGAU [Eternabot (L2) Solution 72] (Eterna round: R97, puzzle: Exclusion 6)		47.3	18.8			
CAUCAGGGAGGAUAUACAUAACUAAAAGGCUAGCAGUCCGUACAUGAGGAUCACCCAUGUAGAAGGCCCGAGUA [EX2 B.6] (Eterna round: R97, puzzle: Exclusion 2)		46.9	20			
CAUGAAGACAAGGAUAUCCGAAUGACGUAAGAAGGAGAAGGUGUCACAUGAGGAUCACCCAUGUGGGAUCUCUG [EX6 B.15] (Eterna round: R97, puzzle: Exclusion 6)		138	23.9			
CAUGAGGUAGGAUAUACGAUAAUAUAGGGUAGAUAUAUAACACAUGAGGAUCACCCAUGUAGAAGGACCAGUAC [Mat - Exclusion 2 - Mod of my Tesla design - D68] (puzzle: Exclusion 2)	35.9				95.7	34.4
CAUGAUCUUCGGAUCAUGUACAUGAGGAUCACCCAUGUGACGAGUAUAUCUUCAAACAAGCUUUUUGCUCGUCUUAU [Sensor v3 - Turn-off variant 1 - 23] (puzzle: Sensor v3, turn-off variant 1)	49.8				41.6	41.6
